Assay results reported in publication PMC10675646 (Viruses, 2023).
Where no end group is shown, it is not given here. The star is where a group is joined. 5FAM = O=C1OC2(c3ccc(O)cc3Oc3cc(O)ccc32)c2ccc(C(=O)*)cc21; Ahx = NCCCCCC(=O)O

T1: 6xHis-SUMO-TRAF3 (residues 341-568) (human, UniProt Q13114 341-568)
T1 construct: also called SUMO-TRAF-C of TRAF3; TRAF3 TRAF-C domain
T1 sequence (looked up): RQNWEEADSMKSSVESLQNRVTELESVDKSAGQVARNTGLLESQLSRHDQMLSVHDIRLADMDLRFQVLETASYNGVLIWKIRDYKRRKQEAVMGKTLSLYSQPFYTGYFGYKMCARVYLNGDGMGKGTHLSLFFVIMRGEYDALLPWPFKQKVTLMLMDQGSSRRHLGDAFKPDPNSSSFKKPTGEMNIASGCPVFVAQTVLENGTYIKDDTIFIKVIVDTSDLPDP

T2: 6xHis-SUMO-TRAF2 (residues 315-501) (human, UniProt Q12933 315-501)
T2 construct: also called SUMO-TRAF-C of TRAF2; TRAF2 TRAF-C domain
T2 sequence (looked up): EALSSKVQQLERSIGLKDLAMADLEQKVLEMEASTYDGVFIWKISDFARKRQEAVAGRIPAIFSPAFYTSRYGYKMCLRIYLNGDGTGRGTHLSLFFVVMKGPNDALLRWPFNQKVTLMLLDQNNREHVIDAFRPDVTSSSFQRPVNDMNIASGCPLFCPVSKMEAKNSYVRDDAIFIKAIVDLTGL


Experiments:
[1] = target: 16-aa ORF3a peptide (SARS-CoV-2 ORF3a residues 30-45) (SARS-CoV-2); assay: crystal structure; details: both partners purified
crystal structure = target: the molecule itself; assay: crystal structure
[2] = target: T1, 6xHis-SUMO-TRAF3 (residues 341-568); assay: fluorescence polarisation; details: both partners purified
[3] = target: T2, 6xHis-SUMO-TRAF2 (residues 315-501); assay: fluorescence polarisation; details: both partners purified

Binder | binding result [1] | stoichiometry N (crystal structure) | Kd [2] | Kd [3]
TRAF2 TRAF-C domain (human TRAF2 residues 315-501), tag cleaved, for crystallization (domain or fragment, UniProt Q12933 315-501, looked up) EALSSKVQQLERSIGLKDLAMADLEQKVLEMEASTYDGVFIWKISDFARKRQEAVAGRIPAIFSPAFYTSRYGYKMCLRIYLNGDGTGRGTHLSLFFVVMKGPNDALLRWPFNQKVTLMLLDQNNREHVIDAFRPDVTSSSFQRPVNDMNIASGCPLFCPVSKMEAKNSYVRDDAIFIKAIVDLTGL | binds | 3 | – | –
{5FAM-Ahx}-PIQAS (also called 5-FAM-ORF3a peptide; fluorescently labeled PIQAS peptide) [5-FAM-Ahx-PIQAS peptide (5-aa ORF3a peptide, residues 36-40)] | – | – | 172 µM | 192 µM
